Earlier results, collected in article PMC5896957.
pKd: −log10 of the molar value.

Target: exon junction complex (Homo sapiens) (UniProt P38919)
Chain of UniProt P38919 (P38919 2-411, chain 1 of 3): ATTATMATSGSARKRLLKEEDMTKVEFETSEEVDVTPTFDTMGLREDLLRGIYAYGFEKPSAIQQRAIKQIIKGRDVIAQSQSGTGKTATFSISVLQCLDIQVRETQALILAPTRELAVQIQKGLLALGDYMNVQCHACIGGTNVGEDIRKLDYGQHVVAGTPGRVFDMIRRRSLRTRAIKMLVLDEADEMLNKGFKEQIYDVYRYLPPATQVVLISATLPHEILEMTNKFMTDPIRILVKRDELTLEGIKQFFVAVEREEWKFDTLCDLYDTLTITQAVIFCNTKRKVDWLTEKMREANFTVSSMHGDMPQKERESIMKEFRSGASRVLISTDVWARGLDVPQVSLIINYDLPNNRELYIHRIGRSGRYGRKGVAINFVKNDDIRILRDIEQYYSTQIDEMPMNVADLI
Chain of UniProt P38919 (B1ARP8 whole entry, chain 2 of 3, further chain): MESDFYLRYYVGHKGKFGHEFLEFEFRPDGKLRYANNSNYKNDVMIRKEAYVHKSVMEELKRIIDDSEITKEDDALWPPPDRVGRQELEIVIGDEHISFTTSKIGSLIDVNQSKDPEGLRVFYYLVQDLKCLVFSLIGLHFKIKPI
Chain of UniProt P38919 (O15234 whole entry, chain 3 of 3, further chain): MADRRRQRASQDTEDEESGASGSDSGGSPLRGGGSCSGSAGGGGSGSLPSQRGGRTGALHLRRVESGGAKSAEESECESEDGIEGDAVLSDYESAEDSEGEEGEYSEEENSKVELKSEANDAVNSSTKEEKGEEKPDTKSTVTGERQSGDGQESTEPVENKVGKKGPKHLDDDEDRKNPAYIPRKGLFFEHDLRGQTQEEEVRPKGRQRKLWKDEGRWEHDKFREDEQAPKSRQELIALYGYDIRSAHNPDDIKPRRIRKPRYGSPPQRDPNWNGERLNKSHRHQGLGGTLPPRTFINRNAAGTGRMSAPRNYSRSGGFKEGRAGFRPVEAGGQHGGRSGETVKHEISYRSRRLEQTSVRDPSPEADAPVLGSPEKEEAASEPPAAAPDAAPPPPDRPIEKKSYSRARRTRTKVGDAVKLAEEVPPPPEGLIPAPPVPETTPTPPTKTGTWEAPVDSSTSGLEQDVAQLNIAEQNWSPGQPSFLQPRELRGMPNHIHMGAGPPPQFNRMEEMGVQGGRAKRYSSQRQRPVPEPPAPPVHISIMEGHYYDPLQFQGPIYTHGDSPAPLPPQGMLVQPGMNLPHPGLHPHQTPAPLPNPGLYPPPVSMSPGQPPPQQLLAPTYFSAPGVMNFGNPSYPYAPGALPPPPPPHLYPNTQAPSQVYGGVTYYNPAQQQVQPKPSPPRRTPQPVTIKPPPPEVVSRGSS

In the case of UPF3B peptide (from UniProt Q9BZI7), the pKd is listed as 5.00.
